Test results reported in patent US9708383 (Novo Nordisk, dated 2017).
*1 amine or outer side, *2 acyl side, *3 side chain or, on linkers, in order; H or OH if unused. Where no end group is shown, it is not given here. Side-chain parts run from the residue outwards. [ ]: non-standard residue; d: D form. The star is where a group is joined. Decanoyl(10-(4-HOOC-PhO)) = O=C(O)c1ccc(OCCCCCCCCCC(=O)*)cc1; C18 diacid = O=C(O)CCCCCCCCCCCCCCCCC(=O)*; C16 diacid = O=C(O)CCCCCCCCCCCCCCC(=O)*; γGlu = O=C(O)[C@H](CCC(=O)[*:2])N[*:1]; Desaminohistidyl = O=C(CCc1c[nH]cn1)*; C12 diacid = O=C(O)CCCCCCCCCCC(=O)*; 13‑carboxytridecanoyl = C14 diacid; AEEA = NCCOCCOCC(=O)O; Aib = CC(C)(N)C(=O)O

B1: GLP-1 derivative of Example 132: [Aib8,Lys8,Glu22,Gln34]-GLP-1-(7-37)-peptide amide (peptide)
peptide: H[Aib]EGTFTSDVSK([AEEA-AEEA-γGlu-Decanoyl(10-(4-HOOC-PhO))])YLEEQAAK([AEEA-AEEA-γGlu-Decanoyl(10-(4-HOOC-PhO))])EFIAWLVQGRG-NH2
modifications: N-terminus assumed
SMILES: CC[C@H](C)[C@H](NC(=O)[C@H](Cc1ccccc1)NC(=O)[C@H](CCC(=O)O)NC(=O)[C@H](CCCCNC(=O)COCCOCCNC(=O)COCCOCCNC(=O)CC[C@H](NC(=O)CCCCCCCCCOc1ccc(C(=O)O)cc1)C(=O)O)NC(=O)[C@H](C)NC(=O)[C@H](C)NC(=O)[C@H](CCC(N)=O)NC(=O)[C@H](CCC(=O)O)NC(=O)[C@H](CCC(=O)O)NC(=O)[C@H](CC(C)C)NC(=O)[C@H](Cc1ccc(O)cc1)NC(=O)[C@H](CCCCNC(=O)COCCOCCNC(=O)COCCOCCNC(=O)CC[C@H](NC(=O)CCCCCCCCCOc1ccc(C(=O)O)cc1)C(=O)O)NC(=O)[C@H](CO)NC(=O)[C@@H](NC(=O)[C@H](CC(=O)O)NC(=O)[C@H](CO)NC(=O)[C@@H](NC(=O)[C@H](Cc1ccccc1)NC(=O)[C@@H](NC(=O)CNC(=O)[C@H](CCC(=O)O)NC(=O)C(C)(C)NC(=O)[C@@H](N)Cc1c[nH]cn1)[C@@H](C)O)[C@@H](C)O)C(C)C)C(=O)N[C@@H](C)C(=O)N[C@@H](Cc1c[nH]c2ccccc12)C(=O)N[C@@H](CC(C)C)C(=O)N[C@H](C(=O)N[C@@H](CCC(N)=O)C(=O)NCC(=O)N[C@@H](CCCNC(=N)N)C(=O)NCC(N)=O)C(C)C
notes: Name prints Lys8, evidently Lys18

What follows are binders tested against T1, human GLP-1 receptor (human, UniProt P43220 24-463) (assay: SPA, 2.0% vs 0.005% HSA).
T1 construct: whole, on cells; Used as purified membranes of the transfected hamster cells, not whole cells; also called hGLP-1
With B1 the “ratio IC50 high HSA/IC50 low HSA” value was over 1.
In the case of H[Aib]EGTFTSDVSK([AEEA-AEEA-γGlu-Decanoyl(10-(4-HOOC-PhO))])YLEEQAAK([AEEA-AEEA-γGlu-Decanoyl(10-(4-HOOC-PhO))])EFIAWLVRG [GLP-1 derivative of Example 140: [Aib8,Lys18,Glu22,Arg34]-GLP-1-(7-35)-peptide], the “ratio IC50 high HSA/IC50 low HSA” value is reported as over 1.
In the case of H[Aib]EGTFTSDVSK([AEEA-AEEA-γGlu-C18 diacid])YLEEQAAK([AEEA-AEEA-γGlu-C18 diacid])EFIAWLVQGRG [GLP-1 derivative of Example 23: [Aib8,Lys18,Glu22,Gln34]-GLP-1-(7-37)-peptide], the “ratio IC50 high HSA/IC50 low HSA” value is reported as over 1.
With [Desaminohistidyl][Aib]EGTFTSDVSK([AEEA-AEEA-γGlu-C12 diacid])YLEEQAVREFIAK([AEEA-AEEA-γGlu-C12 diacid])LVG [GLP-1 derivative of Example 22: [Imp7,Aib8,Lys18,Glu22,Val25,Arg26,Lys31,Gly34]-GLP-1-(7-34)-peptide] the “ratio IC50 high HSA/IC50 low HSA” value was over 1.
[Desaminohistidyl]AEGTFTSDVSK([γGlu-AEEA-AEEA-13‑carboxytridecanoyl])YLEEQAARK([γGlu-AEEA-AEEA-13‑carboxytridecanoyl])FIAHLVG [GLP-1 derivative of Example 32: [Imp7,Lys18,Glu22,Arg26,Lys27,His31,Gly34]-GLP-1-(7-34)-peptide] was tested, and the “ratio IC50 high HSA/IC50 low HSA” value was over 1.
H[Aib]EGTFTSDVSK([AEEA-γGlu-13‑carboxytridecanoyl])YLEEQAVREFIAK([AEEA-γGlu-13‑carboxytridecanoyl])LVG [GLP-1 derivative of Example 20: [Aib8,Lys18,Glu22,Val25,Arg26,Lys31,Gly34]-GLP-1-(7-34)-peptide] was tested, and the “ratio IC50 high HSA/IC50 low HSA” value was over 1.
With H[Aib]EGTFTSDVSK([AEEA-AEEA-γGlu-C16 diacid])YLEEQAAK([AEEA-AEEA-γGlu-C16 diacid])EFIAWLVQGRG [GLP-1 derivative of Example 143: [Aib8,Lys18,Glu22,Gln34]-GLP-1-(7-37)-peptide] the “ratio IC50 high HSA/IC50 low HSA” value was over 1.
For H[Aib]EGTFTSDVSK([AEEA-AEEA-γGlu-Decanoyl(10-(4-HOOC-PhO))])YLEEQAVREFIAK([AEEA-AEEA-γGlu-Decanoyl(10-(4-HOOC-PhO))])LVG [GLP-1 derivative of Example 19: [Aib8,Lys18,Glu22,Val25,Arg26,Lys31,Gly34]-GLP-1-(7-34)-peptide], the “ratio IC50 high HSA/IC50 low HSA” value was over 1.
For H[Aib]EGTFTSDVSK([AEEA-AEEA-γGlu-C16 diacid])YLEEQAAK([AEEA-AEEA-γGlu-C16 diacid])EFIAWLVRG [GLP-1 derivative of Example 138: [Aib8,Lys18,Glu22,Arg34]-GLP-1-(7-35)-peptide], the “ratio IC50 high HSA/IC50 low HSA” value was over 1.
H[Aib]EGTFTSDVSK([AEEA-AEEA-γGlu-13‑carboxytridecanoyl])YLEGQAAHEFIK([AEEA-AEEA-γGlu-13‑carboxytridecanoyl])WLVRG [GLP-1 derivative of Example 81: [Aib8,Lys18,His26,Lys30,Arg34]-GLP-1-(7-35)-peptide] was tested, and the “ratio IC50 high HSA/IC50 low HSA” value was over 1.
In the case of H[Aib]EGTFTSDVSK([AEEA-AEEA-γGlu-13‑carboxytridecanoyl])YLEEQAAREFIK([AEEA-AEEA-γGlu-13‑carboxytridecanoyl])WLVRG [GLP-1 derivative of Example 83: [Aib8,Lys18,Glu22,Arg26,Lys30,Arg34]-GLP-1-(7-35)-peptide], the “ratio IC50 high HSA/IC50 low HSA” value is reported as over 1.
In the case of H[Aib]EGTFTSDVSK([AEEA-AEEA-γGlu-C12 diacid])YLEEQAVREFIAK([AEEA-AEEA-γGlu-C12 diacid])LVG [GLP-1 derivative of Example 8: [Aib8,Lys18,Glu22,Val25,Arg26,Lys31,Gly34]-GLP-1-(7-34)-peptide], the “ratio IC50 high HSA/IC50 low HSA” value is reported as over 1.
With H[Aib]EGTFTSDVSK([AEEA-AEEA-γGlu-13‑carboxytridecanoyl])YLEEQAVREFIAK([AEEA-AEEA-γGlu-13‑carboxytridecanoyl])LVG [GLP-1 derivative of Example 5: [Aib8,Lys18,Glu22,Val25,Arg26,Lys31,Gly34]-GLP-1-(7-34)-peptide] the “ratio IC50 high HSA/IC50 low HSA” value was over 1.
In the case of H[Aib]EGTFTSDVSK([AEEA-AEEA-γGlu-13‑carboxytridecanoyl])YLEEQAVRK([AEEA-AEEA-γGlu-13‑carboxytridecanoyl])FIAHLVG, the “ratio IC50 high HSA/IC50 low HSA” value is reported as over 1.

Each binder was assayed against T1, human GLP-1 receptor (assay: SPA, displacement of 125I-GLP-1(7-36)NH2, 0.005% HSA).
Binder B1 has an IC50 of under 1000 nM.
H[Aib]EGTFTSDVSK([AEEA-AEEA-γGlu-Decanoyl(10-(4-HOOC-PhO))])YLEEQAAK([AEEA-AEEA-γGlu-Decanoyl(10-(4-HOOC-PhO))])EFIAWLVRG [GLP-1 derivative of Example 140: [Aib8,Lys18,Glu22,Arg34]-GLP-1-(7-35)-peptide] gave an IC50 of under 1000 nM.
Binder H[Aib]EGTFTSDVSK([AEEA-AEEA-γGlu-C18 diacid])YLEEQAAK([AEEA-AEEA-γGlu-C18 diacid])EFIAWLVQGRG [GLP-1 derivative of Example 23: [Aib8,Lys18,Glu22,Gln34]-GLP-1-(7-37)-peptide] has an IC50 of under 1000 nM.
Binder [Desaminohistidyl][Aib]EGTFTSDVSK([AEEA-AEEA-γGlu-C12 diacid])YLEEQAVREFIAK([AEEA-AEEA-γGlu-C12 diacid])LVG [GLP-1 derivative of Example 22: [Imp7,Aib8,Lys18,Glu22,Val25,Arg26,Lys31,Gly34]-GLP-1-(7-34)-peptide] has an IC50 of under 1000 nM.
[Desaminohistidyl]AEGTFTSDVSK([γGlu-AEEA-AEEA-13‑carboxytridecanoyl])YLEEQAARK([γGlu-AEEA-AEEA-13‑carboxytridecanoyl])FIAHLVG [GLP-1 derivative of Example 32: [Imp7,Lys18,Glu22,Arg26,Lys27,His31,Gly34]-GLP-1-(7-34)-peptide] gave an IC50 of under 1000 nM.
Binder H[Aib]EGTFTSDVSK([AEEA-γGlu-13‑carboxytridecanoyl])YLEEQAVREFIAK([AEEA-γGlu-13‑carboxytridecanoyl])LVG [GLP-1 derivative of Example 20: [Aib8,Lys18,Glu22,Val25,Arg26,Lys31,Gly34]-GLP-1-(7-34)-peptide] has an IC50 of under 1000 nM.
In the case of H[Aib]EGTFTSDVSK([AEEA-AEEA-γGlu-C16 diacid])YLEEQAAK([AEEA-AEEA-γGlu-C16 diacid])EFIAWLVQGRG [GLP-1 derivative of Example 143: [Aib8,Lys18,Glu22,Gln34]-GLP-1-(7-37)-peptide], the IC50 is reported as under 1000 nM.
Work on H[Aib]EGTFTSDVSK([AEEA-AEEA-γGlu-Decanoyl(10-(4-HOOC-PhO))])YLEEQAVREFIAK([AEEA-AEEA-γGlu-Decanoyl(10-(4-HOOC-PhO))])LVG [GLP-1 derivative of Example 19: [Aib8,Lys18,Glu22,Val25,Arg26,Lys31,Gly34]-GLP-1-(7-34)-peptide] yielded an IC50 of under 1000 nM.
Binder H[Aib]EGTFTSDVSK([AEEA-AEEA-γGlu-C16 diacid])YLEEQAAK([AEEA-AEEA-γGlu-C16 diacid])EFIAWLVRG [GLP-1 derivative of Example 138: [Aib8,Lys18,Glu22,Arg34]-GLP-1-(7-35)-peptide] has an IC50 of under 1000 nM.
H[Aib]EGTFTSDVSK([AEEA-AEEA-γGlu-13‑carboxytridecanoyl])YLEGQAAHEFIK([AEEA-AEEA-γGlu-13‑carboxytridecanoyl])WLVRG [GLP-1 derivative of Example 81: [Aib8,Lys18,His26,Lys30,Arg34]-GLP-1-(7-35)-peptide] showed an IC50 of under 1000 nM.
With H[Aib]EGTFTSDVSK([AEEA-AEEA-γGlu-13‑carboxytridecanoyl])YLEEQAAREFIK([AEEA-AEEA-γGlu-13‑carboxytridecanoyl])WLVRG [GLP-1 derivative of Example 83: [Aib8,Lys18,Glu22,Arg26,Lys30,Arg34]-GLP-1-(7-35)-peptide] the IC50 was under 1000 nM.
H[Aib]EGTFTSDVSK([AEEA-AEEA-γGlu-C12 diacid])YLEEQAVREFIAK([AEEA-AEEA-γGlu-C12 diacid])LVG [GLP-1 derivative of Example 8: [Aib8,Lys18,Glu22,Val25,Arg26,Lys31,Gly34]-GLP-1-(7-34)-peptide] gave an IC50 of under 1000 nM.
Work on H[Aib]EGTFTSDVSK([AEEA-AEEA-γGlu-13‑carboxytridecanoyl])YLEEQAVREFIAK([AEEA-AEEA-γGlu-13‑carboxytridecanoyl])LVG [GLP-1 derivative of Example 5: [Aib8,Lys18,Glu22,Val25,Arg26,Lys31,Gly34]-GLP-1-(7-34)-peptide] yielded an IC50 of under 1000 nM.
H[Aib]EGTFTSDVSK([AEEA-AEEA-γGlu-13‑carboxytridecanoyl])YLEEQAVRK([AEEA-AEEA-γGlu-13‑carboxytridecanoyl])FIAHLVG showed an IC50 of under 1000 nM.
